{"source": "paper PMC12828031", "key": {"EGFP-vinculin": {"biological_target": "EGFP-vinculin (UniProt P18206)", "test": "FRET or BRET; multiphoton TCSPC-FLIM of the donor on vinculin (EGFP or mTFP1) with mScarlet-I on RIAM as acceptor; transiently transfected MEF Vinc-/- fixed in 4% PFA; also with the ROCK inhibitor H1152 (no change)"}, "mTFP1-vinculin": {"biological_target": "mTFP1-vinculin (UniProt P18206)", "test": "FRET or BRET; multiphoton TCSPC-FLIM of the donor on vinculin (EGFP or mTFP1) with mScarlet-I on RIAM as acceptor; transiently transfected MEF Vinc-/- fixed in 4% PFA; also with the ROCK inhibitor H1152 (no change)"}}, "data": [{"substance": "RIAM-mScarlet (RIAM C-terminally tagged with mScarlet-I) (from UniProt Q7Z5R6 1-666) (natural protein)", "values": [{"measurement": "FRET efficiency", "setting": "EGFP-vinculin", "result": 13.5, "unit": "%"}]}, {"substance": "mScarlet-RIAM (RIAM N-terminally tagged with mScarlet-I) (from UniProt Q7Z5R6 1-666) (natural protein)", "values": [{"measurement": "FRET efficiency", "setting": "EGFP-vinculin", "result": 16.4, "unit": "%"}, {"measurement": "FRET efficiency", "setting": "mTFP1-vinculin", "result": 20, "unit": "%"}]}]}
